Experimental data as given in article PMC11976700, “Engineering of Conserved Sequence Motif 1 Residues in Halohydrin Dehalogenase HheC Simultaneously Enhances Activity, Stability, and Enantioselectivity” (ACS Catalysis, 2025).
Numbering of substitutions follows the chain as printed. Names and notes keep the numbering of the source. Like-named read-outs stand apart in the source and are kept apart here.

Key:
OC(CCl)CCl = tested on: T1, OC(CCl)CCl; experiment: dehalogenation, halide release assay, Michaelis-Menten fit; type: biochemical, Agrobacterium tumefaciens; conditions: 25 mM Tris-SO4 pH 7.0, 30 °C
T1 construct: E. coli BL21(DE3); homotetramer
Source text: (§1) dehalogenation, halide release assay, Michaelis-Menten fit on HheC

ClCC1CO1 = experiment: purified protein; conditions: 2 mM MOPS-SO4 pH 7.0, 30 °C
[1] = substrate: C1CCC2OC2C1; type: biochemical, Ilumatobacter coccineus; conditions: 2 mM MOPS-SO4 pH 7.0, 22 °C, fixed azide (100 mM in table footnote, 60 mM in methods)
[2] = substrate: C1CCC2OC2C1; type: biochemical, Ilumatobacter coccineus; conditions: 2 mM MOPS-SO4 pH 7.0, 22 °C, fixed azide (100 mM in table footnote, 60 mM in methods); remark: listed apart in the source
[3] = substrate: C1CCC2OC2C1; type: biochemical, Ilumatobacter coccineus; conditions: 2 mM MOPS-SO4 pH 7.0, 22 °C, fixed azide (100 mM in table footnote, 60 mM in methods); remark: listed apart in the source
[4] = substrate: C1CCC2OC2C1; type: biochemical, Ilumatobacter coccineus; conditions: 2 mM MOPS-SO4 pH 7.0, 22 °C, fixed 100 mM azide
purified protein = substrate: ClCC1CO1; experiment: purified protein; conditions: 2 mM MOPS-SO4 pH 7.0, 30 °C, fixed nonsaturating azide (100 mM in table footnote, 60 mM in methods)
[5] = substrate: OC(CCl)CCl; experiment: dehalogenation, halide release assay, Michaelis-Menten fit; type: biochemical, Agrobacterium tumefaciens; conditions: 25 mM Tris-SO4 pH 7.0, 30 °C
Source text: as §1

[6] = fixed nonsaturating azide (100 mM in table footnote, 60 mM in methods)

**Q.** How did the Km (OC(CCl)CCl) turn out when HheC (Agrobacterium tumefaciens; G14A) was run?
**A.** The Km was 920 ± 370 µM.

**Q.** What about the kcat (OC(CCl)CCl) of the same molecule?
**A.** The kcat was 0.05 ± 0.00 s⁻¹.

**Q.** And the K0.5 (ClCC1CO1; fixed 100 mM azide)?
**A.** Its K0.5 is 49.5 ± 1.52 mM.

**Q.** Which results are given for HheC (Agrobacterium tumefaciens; F12Y)?
**A.** Km (OC(CCl)CCl): 980 ± 190 µM; kcat (OC(CCl)CCl): 6.30 ± 0.26 s⁻¹; K0.5 (ClCC1CO1; [6]): 14.2 ± 0.67 mM

**Q.** How did the Km (OC(CCl)CCl) turn out when HheC (Agrobacterium tumefaciens; T7S) was run?
**A.** The Km was 810 ± 230 µM.

**Q.** What about the kcat (OC(CCl)CCl) of the same molecule?
**A.** Its kcat is 1.37 ± 0.07 s⁻¹.

**Q.** What about the K0.5 (ClCC1CO1; [6]) of the same molecule?
**A.** The K0.5 was 40.3 ± 6.88 mM.

B1: HheG (Ilumatobacter coccineus YM16-304; T13S) (protein)
chain: MSNAENRPVALISMATGYVGPALARTMADRGFDLVLHGTAGDGTMVGVEESFDSQIADLAKRGADVLTISDVDLTTRTGNQSMIERVLERFGRLDSACLVTGLIVTGKFLDMTDDQWAKVKATNLDMVFHGLQAVLPPMVAAGAGQCVVFTSATGGRPDPMVSIYGGTRAGANGIVRAVGLEHARHGVQVNAIGTNYMDFPGFLKASRADGDPERRAMIEAQVPLRRLGTMDELSSVTAGLLDGSNRFQTGQFFDFSGGWGA
notes: E. coli BL21(DE3); homotetramer
**Q.** Which K0.5 [1] does the source give for B1 here?
**A.** The K0.5 was 44.8 ± 1.29 mM.

B2: HheG (Ilumatobacter coccineus YM16-304; Y18F) (protein)
chain: B1 chain with S13T, Y18F
notes: as for B1
**Q.** With B2 as the molecule, how does the K0.5 [2] read?
**A.** The K0.5 was 66.4 ± 1.42 mM.

B3: HheG (Ilumatobacter coccineus YM16-304) (protein)
chain: B1 chain with S13T
notes: as for B1
**Q.** With B3 as the molecule, how does the K0.5 [3] read?
**A.** The K0.5 was 39.4 ± 2.69 mM.

B4: HheG (Ilumatobacter coccineus YM16-304; G20A) (protein)
chain: B1 chain with S13T, G20A
notes: as for B1
**Q.** B4 was tested. Which K0.5 [4] did it give?
**A.** The K0.5 was 42.2 ± 3.64 mM.

B5: HheC (Agrobacterium tumefaciens) (protein)
chain: MSTAIVTNVKHFGGMGSALRLSEAGHTVACHDESFKQKDELEAFAETYPQLKPMSEQEPAELIEAVTSAYGQVDVLVSNDIFAPEFQPIDKYAVEDYRGAVEALQIRPFALVNAVASQMKKRKSGHIIFITSATPFGPWKELSTYTSARAGACTLANALSKELGEYNIPVFAIGPNYLHSEDSPYFYPTEPWKTNPEHVAHVKKVTALQRLGTQKELGELVAFLASGSCDYLTGQVFWLAGGFPMIERWPGMPE
notes: as for B1
**Q.** With B5 as the molecule, how does the K0.5 (purified protein) read?
**A.** Its K0.5 is 18.8 ± 1.24 mM.

**Q.** And the Km [5]?
**A.** The Km was 450 ± 140 µM.

**Q.** And the kcat [5]?
**A.** Its kcat is 1.84 ± 0.11 s⁻¹.
